Test results as given in publication PMC4803301.

B1: R-spondin1 (Rspo1): 2WA (protein)
parent chain: MRLGLCVVALVLSWTHLTISSRGIKGKRQRRISAEGSQACAKGCELCSEVNGCLKCSPKLFILLERNDIRQVGVCLPSCPPGYFDARNPDMNKCIKCKIEHCEACFSHNFCTKCKEGLYLHKGRCYPACPEGSSAANGTMECSSPAQCEMSEWSPWGPCSKKQQLCGFRRGSEERTRRVLHAPVGDHAACSDTKETRRCTVRRVPCPEGQKRRKGGQGRRENANRNLARKESKEAGAGSRRRKGQQQQQQQGTVGPLTSAGPA
B2: R-spondin1 (Rspo1): siDPY19L3 (protein)
parent chain: B1 parent chain
B3: R-spondin1 (Rspo1): siDPY19L3#2 (protein)
parent chain: B1 parent chain

Tests used:
[1] = time course of secreted Rspo1, anti-myc blot; details: glycan lost; control: wild type
[2] = anti-myc blot of conditioned medium and lysate, HT1080; details: glycan lost; control: wild type
[3] = anti-myc blot of conditioned medium and lysate, HT1080-Rspo1-MH; details: glycan lost; control: siCtrl

Row | Protein | expression_or_secretion [1] | expression_or_secretion [2] | expression_or_secretion [3]
1 | B1 | decreases | decreases | –
2 | B2 | – | – | decreases
3 | B3 | – | – | decreases
